Experimental data from patent publication US20240350583A1, “COMPOSITION FOR PREVENTING OR TREATING FIBROTIC DISEASES, COMPRISING HAPLN1” (Chung Ang University Industry Academic Cooperation …, priority 2021, published 2024).

Key:
Format in all cases: cell-based
[1] = system: normal human lung fibroblast (NHLF); test: TGFβ1-induced fibrosis of normal human lung fibroblasts, αSMA western blot
Procedure: (1) normal human lung fibroblasts (NHLF) cultured for 9 passages were seeded (1.0×10^5 cells/well) in a 6-well plate and incubated in FBM-2 (Fibroblast Growth Medium-2, CC-3131, Lonza) medium for 24 hours in an incubator at 37° C. 5% CO2. (2) After replacing with serum-free medium, the medium was incubated for 24 hours.
(§1) (3) In this regard, under conditions in which fibrosis was induced by treatment with TGFβ1 (10 ng/ml), each well of the plate was treated with the composition of the present disclosure with rhHAPLN1 protein content of 0, 3.1, 12.5, 25 and 100 ng/ml and 100 μg/mL and 200 μg/mL of pirfenidone (Selleckchem), respectively, and incubated for 24 hours.
(§2) (4) Afterwards, each sample was washed twice with phosphate buffered saline (PBS, pH 7.2), and then the expression level of αSMA, a marker for myofibroblasts, was confirmed by western blot.

[2] = system: normal human dermal fibroblast (NHDF); test: TGFβ1-induced fibrosis of human dermal fibroblasts, αSMA western blot
Procedure: (1) Human dermal fibroblasts (normal human dermal fibroblast, NHDF) were seeded (1.0×10^5 cells/well) in a 6-well plate and incubated in FBM-2 (fibroblast growth medium-2, CC-3131, Lonza) medium for 24 hours in an incubator at 37° C. 5% CO2.
(2) After replacing with serum-free medium, the medium was incubated for 24 hours.
as §1, with “disclosure based on Preparation Example 2 but” for “disclosure”, “3, 10, 30,” for “3.1, 12.5, 25”, “(Selleckchem), a commercially available anti-fibrotic agent,” for “(Selleckchem),”
as §2

[3] = system: renal proximal tubule epithelial cell (RPTEC); test: Age-induced fibrosis of RPTEC (passage 11), αSMA immunofluorescence; conditions: aged cells (11th passage culture), 72 hours
Procedure: (1) Renal proximal tubule epithelial cell ([…]) in 12-well plates and cultured in complete renal epithelial cell medium (ATCC PCS-400-030+ATCC PCS-400-040) in an incubator at 37° C. 5% CO2 for 24 hours.
(2) Subsequently, the plates were then treated with the composition of the present disclosure (rhHAPLN1 protein content of 0, 10, 20, 50 and 100 ng/ml) and pirfenidone 0.2 mg/mL (200 μg/mL), respectively, and cultured for 72 hours.
(3) Afterwards, each well was washed twice with PBS, then treated with 4% paraformaldehyde and fixed for 1 hour.
(4) After washing four times with 1×PBS, the wells were treated with 1×PBST (1×PBS+0.1% Triton X-100) containing 1% BSA and blocked for 2 hours.
(5) Primary antibody against αSMA (Abcam ab7817) was diluted 1:200 in 1×PBSTdp and treated and incubated overnight at 4° C.
(6) The next day, the blot was washed four times with 1×PBST.
(7) After treatment with secondary antibody (anti-mouse IgG Alexa Fluor™ 488 1:500 (Invitrogen, A28175)) and DAPI 1:2000 (Invitrogen, D1306), the cells were incubated at room temperature for 1 hour.
(8) Afterwards, 50 ul of Vectashield (Vectorlabs, H-1000) was added, covered with a coverslip, and photographed with a fluorescence microscope.

[4] = system: human cardiac microvascular endothelial cell (HCMEC); test: TGFβ1-induced fibrosis of human cardiac microvascular endothelial cells, αSMA western blot
Procedure: (1) Primary human cardiac microvascular endothelial cell (HCMEC; ScienCell, #6000) were seeded (5.7×10^4 cells/well) in a 6-well plate according to the experimental scheme of FIG. 4A and incubated in Endothelial cell medium (ScienCell) for 24 hours in an incubator at 37° C. 5% CO2.
(2) The plates were then treated with TGFβ1 (5 ng/ml) to induce fibrosis and incubated for 3 days.
(3) Afterwards, each well of the plate was then treated with the composition of the present disclosure at rhHAPLN1 protein content of 0, 3, 10, 30, and 100 ng/ml and pirfenidone 100 μg/mL and 200 μg/mL, respectively, and incubated for 3 days.
(4) Each sample was then treated with cell lysis buffer and harvested.
(5) Western blotting was performed on the samples. Here, anti-αSMA Ab (Abcam, ab7817), anti-GAPDH Ab (Santa Cruz, sc-32233) were used as primary antibodies and HRP-conjugated anti-mouse IgG Ab (CST, #7076) as secondary antibodies to confirm the protein expression levels of αSMA and GAPDH.

[5] = system: human colon fibroblast cell line (CCD-18Co); test: TGFβ1-induced fibrosis of human colon fibroblast cell line, αSMA western blot
Procedure: (1) A human colon fibroblast cell line (CCD-18Co (human colon fibroblast cell line; ATCC, CRL-1459)) was seeded (1.5×10^5 cells/well) in a 6-well plate according to the experimental scheme in FIG. 3A and incubated in Eagle's minimum essential medium (EMEM) medium including 10% fetal bovine serum (FBS) for 24 hours in an incubator at 37° C. and 5% CO2.
(2) After replacing with serum-free EMEM medium, the medium was incubated for 24 hours.
(3) The plates were then treated with TGF-β (10 ng/ml) to induce fibrosis and incubated for 24 hours.
(4) Afterwards, each well of the plate was then treated with the composition of the present disclosure at rhHAPLN1 protein content of 0, 3, 10, 30, and 100 ng/ml and pirfenidone 100 μg/mL and 200 μg/mL, respectively, and incubated for 24 hours.
(5) Each sample was then treated with cell lysis buffer and harvested.
(6) Western blot was performed on the samples. Here, anti-αSMA Ab (Abcam, ab7817), anti-GAPDH Ab (Santa Cruz, sc-32233) were used as primary antibodies and HRP-conjugated anti-mouse IgG Ab (CST, #7076) as secondary antibodies to confirm the protein expression levels of αSMA and GAPDH.

[6] = all rhHAPLN1 contents, pirfenidone 100 and 200 μg/mL

Molecule: Cc1ccc(=O)n(-c2ccccc2)c1 [pirfenidone, reference compound]
- anti-fibrotic effect (expression level of αSMA compared to composition without rhHAPLN1) ([1]; pirfenidone 100 and 200 μg/mL): no anti-fibrotic effect
- expression level of αSMA at 200 μg/mL versus 100 μg/mL ([2]; pirfenidone 200 μg/mL, TGFβ1 10 ng/ml): higher expression level of αSMA than 100 μg/mL
- optimal anti-fibrotic concentration (assumed) ([2]; αSMA, TGFβ1 10 ng/ml): 100 µg/mL
- αSMA stained fluorescent areas (FIG. 10B) ([3]; pirfenidone 0.2 mg/ml): fewer stained fluorescent areas appeared
- expression level of αSMA compared to composition that does not include rhHAPLN1 protein ([4]; pirfenidone 100 and 200 μg/mL): higher than when treated with a composition that does not include rhHAPLN1 protein
- inhibition at 100 µg/mL ([5]; Homo sapiens, CCD-18Co, pirfenidone 100 μg/mL): 10.6%
- relative level of αSMA (value used in the inhibition formula; TGFβ1 alone 3.82, untreated 1) ([5]; pirfenidone 100 μg/mL): 3.52
- expression level of αSMA at 200 μg/mL versus 100 μg/mL ([5]; pirfenidone 200 μg/mL): higher expression level of αSMA than 100 μg/mL

B1: rhHAPLN1: recombinant human HAPLN1 protein of SEQ ID NO: 1 produced in CHO-K1 cells, stabilized in acetic acid buffer, sucrose, PS80, pH 5.0 (protein, listed as Homo sapiens)
chain: MKSLLLLVLISICWADHLSDNYTLDHDRAIHIQAENGPHLLVEAEQAKVFSHRGGNVTLPCKFYRDPTAFGSGIHKIRIKWTKLTSDYLKEVDVFVSMGYHKKTYGGYQGRVFLKGGSDSDASLVITDLTLEDYGRYKCEVIEGLEDDTVVVALDLQGVVFPYFPRLGRYNLNFHEAQQACLDQDAVIASFDQLYDAWRGGLDWCNAGWLSDGSVQYPITKPREPCGGQNTVPGVRNYGFWDKDKSRYDVFCFTSNFNGRFYYLIHPTKLTYDEAVQACLNDGAQIAKVGQIFAAWKILGYDRCDAGWLADGSVRYPISRPRRRCSPTEAAVRFVGFPDKKHKLYGVYCFRAYN
- expression level of αSMA compared to composition that does not include rhHAPLN1 protein (FIG. 5B) ([1]; TGFβ1 10 ng/ml, rhHAPLN1 3.1, 12.5, 25, 100 ng/ml, 24 hours): significantly lower
- anti-fibrotic action from αSMA western blot band, compared to pirfenidone (FIG. 5A) [1, 6]: much better anti-fibrotic action compared to pirfenidone
- anti-fibrotic efficacy relative to pirfenidone at 100 μg/mL and at 200 μg/mL ([1]; rhHAPLN1 12.5 ng/ml): about twice as higher
- rhHAPLN1 protein content showing the most excellent anti-fibrotic efficacy ([1]; αSMA): 12.5 ng/mL
- expression level of αSMA compared to composition that does not include rhHAPLN1 protein (FIG. 1B) ([2]; TGFβ1 10 ng/ml, all rhHAPLN1 contents 3, 10, 30, 100 ng/ml, 24 hours): significantly lower
- anti-fibrotic action from αSMA western blot band, compared to pirfenidone (FIG. 1A) ([2]; TGFβ1 10 ng/ml, pirfenidone 100 and 200 μg/mL): much better anti-fibrotic action than pirfenidone
- rhHAPLN1 protein content showing the most excellent anti-fibrotic efficacy ([2]; TGFβ1 10 ng/ml, αSMA): 100 ng/mL
- anti-fibrotic efficacy higher than pirfenidone at 100 μg/mL ([2]; rhHAPLN1 100 ng/ml, αSMA): 25%
- αSMA stained fluorescent areas compared to composition without rhHAPLN1 (FIG. 10B) ([3]; rhHAPLN1 50 ng/ml and 100 ng/ml): fewer stained fluorescent areas appeared
- expression level of αSMA compared to composition that does not include rhHAPLN1 protein (FIG. 4C) ([4]; TGFβ1 5 ng/ml 3 days, then rhHAPLN1 3, 10, 30, 100 ng/ml 3 days): significantly lower
- anti-fibrotic action from αSMA western blot band, compared to pirfenidone (FIG. 4B) [4, 6]: much better anti-fibrotic action compared to pirfenidone
- rhHAPLN1 protein content showing the most excellent anti-fibrotic efficacy ([4]; αSMA): 3 ng/mL
- expression level of αSMA compared to composition that does not include rhHAPLN1 protein (FIG. 3C) ([5]; TGFβ1 10 ng/ml 24 h, then rhHAPLN1 3, 10, 30, 100 ng/ml 24 h): significantly lower
- anti-fibrotic action from αSMA western blot band, compared to pirfenidone (FIG. 3B) [5, 6]: much better anti-fibrotic action compared to pirfenidone
- anti-fibrotic efficacy of rhHAPLN1 relative to pirfenidone at 100 μg/mL ([5]; rhHAPLN1 10 ng/ml): approximately 7 folds
- anti-fibrotic efficacy relative to pirfenidone at 200 μg/mL ([5]; rhHAPLN1 10 ng/ml): much higher than twice
- inhibition of TGFβ1-induced αSMA ([5]; rhHAPLN1 10 ng/ml): 71.6%
- relative level of αSMA (value used in the inhibition formula; TGFβ1 alone 3.82, untreated 1) ([5]; rhHAPLN1 10 ng/ml): 1.8
- rhHAPLN1 protein content showing the most excellent anti-fibrotic efficacy ([5]; αSMA): 10 ng/mL
